IntAct's records for PubMed 22555612

Biological target: hdac2_mouse Hdac2 (UniProt P70288)
Sequence (P70288 whole entry): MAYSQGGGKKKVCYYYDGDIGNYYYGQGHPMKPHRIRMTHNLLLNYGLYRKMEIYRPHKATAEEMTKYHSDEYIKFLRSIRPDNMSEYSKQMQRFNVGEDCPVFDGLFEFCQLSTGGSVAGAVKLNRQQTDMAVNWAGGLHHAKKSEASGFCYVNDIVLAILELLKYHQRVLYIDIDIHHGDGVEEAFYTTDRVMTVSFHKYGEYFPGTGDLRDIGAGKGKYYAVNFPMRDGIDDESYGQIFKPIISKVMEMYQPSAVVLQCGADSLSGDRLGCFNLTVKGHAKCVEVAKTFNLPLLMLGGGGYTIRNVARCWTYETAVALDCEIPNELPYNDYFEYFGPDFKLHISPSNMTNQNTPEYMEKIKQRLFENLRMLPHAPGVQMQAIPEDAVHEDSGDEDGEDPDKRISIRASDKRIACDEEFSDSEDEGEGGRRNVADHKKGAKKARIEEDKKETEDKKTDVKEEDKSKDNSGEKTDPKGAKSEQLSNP

Chain of PR domain zinc finger protein 1 (Homo sapiens), O75626-2 K778R (O75626 37-825, stated change not applied): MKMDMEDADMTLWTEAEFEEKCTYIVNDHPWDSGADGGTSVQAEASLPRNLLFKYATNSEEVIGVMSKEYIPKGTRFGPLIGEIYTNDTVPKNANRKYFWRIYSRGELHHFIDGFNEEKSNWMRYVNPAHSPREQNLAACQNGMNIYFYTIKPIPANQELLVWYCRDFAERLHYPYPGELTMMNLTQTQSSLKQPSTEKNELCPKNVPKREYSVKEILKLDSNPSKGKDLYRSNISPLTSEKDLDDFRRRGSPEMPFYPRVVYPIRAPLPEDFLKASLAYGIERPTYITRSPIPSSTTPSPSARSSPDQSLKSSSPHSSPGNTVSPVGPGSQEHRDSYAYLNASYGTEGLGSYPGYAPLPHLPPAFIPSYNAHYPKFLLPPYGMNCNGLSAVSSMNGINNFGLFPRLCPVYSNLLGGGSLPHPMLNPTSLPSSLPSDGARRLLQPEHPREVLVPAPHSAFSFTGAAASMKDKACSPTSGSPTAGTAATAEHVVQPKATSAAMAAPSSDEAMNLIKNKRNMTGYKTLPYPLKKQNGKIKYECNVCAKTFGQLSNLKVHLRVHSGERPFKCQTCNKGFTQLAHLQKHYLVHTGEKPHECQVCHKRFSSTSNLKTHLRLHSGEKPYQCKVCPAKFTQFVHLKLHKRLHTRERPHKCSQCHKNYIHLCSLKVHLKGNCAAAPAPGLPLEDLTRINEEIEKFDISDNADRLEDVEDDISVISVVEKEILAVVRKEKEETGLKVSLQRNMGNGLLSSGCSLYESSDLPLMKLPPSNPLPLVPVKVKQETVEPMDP

- effect of a mutation on the interaction: decreasing interaction
Substance: PR domain zinc finger protein 1 (Homo sapiens), O75626-2 K778R
